Reference: paper PMC7251095

Molecular target: E. coli F1Fo ATP synthase subunit b (cysteine free) (E. coli) (UniProt P0ABA0)
Assay: cryo-EM structure; detergent-solubilized (digitonin) cysteine free E. coli F1Fo ATP synthase at 11 μM with 10 mM MgADP, 22 °C for 30 s before freezing; 300 kV; nine sub-states and a Fo focused map of Sub-state 3A

stoichiometry N: 2
Substance: E. coli F1Fo ATP synthase subunit b (cysteine free) (from UniProt P0ABA0 1-156) (natural protein)
